From patent US20020150536A1

Experiments:
[1] = target: αvβ3 integrin (human) (UniProt P06756); experiment: competition ELISA, displacement of biotinylated fibrinogen (6 nM) from immobilized αvβ3 (FIG. 4B)
[2] = target: αvβ3 integrin (human) (UniProt P06756); experiment: competition ELISA, displacement of biotinylated vitronectin (10 nM) from immobilized αvβ3 (FIG. 4A)

αvβ3-specific monoclonal antibody LM609 was tested, and the IC50 [1] was 6.3 nM and the IC50 [2] was 2.7 nM.
